1 molecule from US11897928B2, “Conjugates for delivering an anti-cancer agent to nerve cells, methods of use and methods of making thereof” (Manzanita Pharmaceuticals, Inc., priority 2018, dated 2024) can be followed below.

One data set concerns TrkB receptor. Put plainly: Bioassay in RGC cultures for TrkB receptor binding. Format: cell-based.
The nature of data set [1]: Intracisternal delivery of 800-rhBDNF in naïve rats (Spectralis IRAF/IR imaging, NIR microscopy and HE histopathology). It counts as in vivo. As to the method: A Dyomics Near InfraRed (NIR) dye 800 was conjugated to rhBDNF (800-rhBDNF) as set forth above. […] Three single doses of 800-rhBDNF were injected midline intracisternally in naïve rats (n=4; n=3 800-rhBDNF, n=1 control, unmodified dye 800 carboxylic acid form). Three test doses of 800-rhBDNF were selected: lowest (5 μL for syringe, at 0.20 concentration=1 μg study article), mid-, and highest (30 μL; upper volume constraint is 50 μL). Images at three timepoints were collected, just prior to treatment, 15 min, and 6 h using two imaging modalities in both eyes (left eye, oculus sinister, OS; right eye, oculus dexter, OD). Imaging and histopathology methods were used to detect 800-rhBDNF in the optic chiasm or optic nerve head.
Two seetings were selected on the Heidelberg Spectralis®. Infrared autofluorescence IRAF; or ICG, to detect indocyanine green, an NIR dye uses a diode laser with a wavelength of 790 nm in the NIR spectrum. A barrier filter at 830 nm separates excitation and fluorescence light and thus, IRAF/ICG detects near IR fluorescence in 800-rhBDNF. […] After dissection, tissues were cryostatted to preserve NIR 800. Two directly contiguous sets of slides were produced from two sections of optic nerve, optic chiasm from brain tissue, and optic nerve head from eyes. HE stain.
Hematoxylin and eosin (HE) stain was applied to one slide set to reveal nerve tissue. NIR microscopy. Using an Olympus IX73 inverted 2-deck microscope with motorized filter cube turret; objective turret; Proscan XYZ stage; a 75 W Xenon burner; and DP80 Dual CCD 12.7 MP camera, NIR images are acquired in two channels at 4× in the FITC channel (detects auto-fluorescence) and ICG channel. The morphology of HE stained slides to those with FITC+NIR images was compared to confirm that NIR 800 had localized to in nerve tissue.

B1: 800-rhBDNF: Dyomics Near InfraRed (NIR) dye 800 conjugated to rhBDNF (conjugate, UniProt P23560 19-247, looked up)
Neurotrophic factor BDNF …: APMKEANIRGQGGLAYPGVRTHGTLESVNGPKAGSRGLTSLADTFEHVIEELLDEDQKVRPNEENNKDADLYTSRVMLSSQVPLEPPLLFLLEEYKNYLDAANMSMRVRRHSDPARRGELSVCDSISEWVTAADKKTAVDMSGGTVTVLEKVPVSKGQLKQYFYETKCNPMGYTKEGCRGIDKRHWNSQCRTTQSYVRALTMDSKKRIGWRFIRIDTSCVCTLTIKRGR
modifications: Dyomics 800 NIR dye
notes: Dyomics Near InfraRed (NIR) dye 800 conjugated to rhBDNF
On to B1, for which, in the data set with TrkB receptor, the “TrkB receptor binding following synthesis” value was “TrkB receptor binding remains intact”. For the same molecule, in data set [1] (intracisternal injection, live imaging at baseline, 15 min and 6 h), the “localized irritation in the retinas” value is recorded as “No localized irritation in the retinas was observed”. Besides, the “distribution of midline injection (both eyes)” value in data set [1] (midline intracisternal injection, imaging in OS and OD) is “distributed bilaterally”. In data set [1] (preliminary studies, given intracisternally), the “transport of 800 dye from the site of injection” value is given as “transports 800 dye away from the site of injection, via the optic chiasm, to the optic nerve head”. Also, in data set [1] (single midline intracisternal injection, histopathology after euthanasia at 6 h, optic chiasm and optic nerve head), the “localization of NIR 800 dye in nerve tissue (morphology of NIR microscopy compared to HE stain)” value was “localizes the 800 dye and moves the 800 dye away from the injection site via optic chiasm to optic nerve head”.
